Laboratory results: US20260015399A1 (Boehringer Ingelheim, published 2026)
*1 amine or outer side, *2 acyl side, *3 side chain or, on linkers, in order; H or OH if unused. Side-chain parts run from the residue outwards. The star is where a group is joined. C18 diacid = O=C(O)CCCCCCCCCCCCCCCCC(=O)*; γGlu = O=C(O)[C@H](CCC(=O)[*:2])N[*:1]; Isovaleryl = CC(C)CC(=O)*; Ahx = NCCCCCC(=O)O

T1: human NPY2 receptor (human, UniProt P49146 1-381)
T1 construct: whole, on cells; also called hNPY2-R; hNPY2R
T1 sequence (looked up): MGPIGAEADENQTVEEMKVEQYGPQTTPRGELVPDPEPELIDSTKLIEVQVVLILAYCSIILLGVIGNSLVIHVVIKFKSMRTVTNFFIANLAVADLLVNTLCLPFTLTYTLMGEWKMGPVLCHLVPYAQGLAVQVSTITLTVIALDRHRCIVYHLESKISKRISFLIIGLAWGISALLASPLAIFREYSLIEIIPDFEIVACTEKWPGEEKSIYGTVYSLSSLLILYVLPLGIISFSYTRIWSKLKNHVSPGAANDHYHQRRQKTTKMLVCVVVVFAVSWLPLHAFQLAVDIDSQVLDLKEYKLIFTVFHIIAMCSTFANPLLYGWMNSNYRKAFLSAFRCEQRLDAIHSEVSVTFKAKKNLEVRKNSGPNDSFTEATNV

B1: Compound 68 (peptide)
peptide: Isovaleryl-APEK([Ahx-γGlu-C18 diacid])PEEDAEPEELQRYYVSLRHYYQWLTRQRY-NH2
SMILES: CC(C)CC(=O)N[C@@H](C)C(=O)N1CCC[C@H]1C(=O)N[C@@H](CCC(=O)O)C(=O)N[C@@H](CCCCNC(=O)CCCCCNC(=O)CC[C@H](NC(=O)CCCCCCCCCCCCCCCCC(=O)O)C(=O)O)C(=O)N1CCC[C@H]1C(=O)N[C@@H](CCC(=O)O)C(=O)N[C@@H](CCC(=O)O)C(=O)N[C@@H](CC(=O)O)C(=O)N[C@@H](C)C(=O)N[C@@H](CCC(=O)O)C(=O)N1CCC[C@H]1C(=O)N[C@@H](CCC(=O)O)C(=O)N[C@@H](CCC(=O)O)C(=O)N[C@@H](CC(C)C)C(=O)N[C@@H](CCC(N)=O)C(=O)N[C@@H](CCCNC(=N)N)C(=O)N[C@@H](Cc1ccc(O)cc1)C(=O)N[C@@H](Cc1ccc(O)cc1)C(=O)N[C@H](C(=O)N[C@@H](CO)C(=O)N[C@@H](CC(C)C)C(=O)N[C@@H](CCCNC(=N)N)C(=O)N[C@@H](Cc1c[nH]cn1)C(=O)N[C@@H](Cc1ccc(O)cc1)C(=O)N[C@@H](Cc1ccc(O)cc1)C(=O)N[C@@H](CCC(N)=O)C(=O)N[C@@H](Cc1c[nH]c2ccccc12)C(=O)N[C@@H](CC(C)C)C(=O)N[C@H](C(=O)N[C@@H](CCCNC(=N)N)C(=O)N[C@@H](CCC(N)=O)C(=O)N[C@@H](CCCNC(=N)N)C(=O)N[C@@H](Cc1ccc(O)cc1)C(N)=O)[C@@H](C)O)C(C)C
B2: Compound 77 (peptide)
peptide: Isovaleryl-APAK([Ahx-γGlu-C18 diacid])PEEDASPEELQRYYVSLRHYQNWLTRQRY-NH2
SMILES: CC(C)CC(=O)N[C@@H](C)C(=O)N1CCC[C@H]1C(=O)N[C@@H](C)C(=O)N[C@@H](CCCCNC(=O)CCCCCNC(=O)CC[C@H](NC(=O)CCCCCCCCCCCCCCCCC(=O)O)C(=O)O)C(=O)N1CCC[C@H]1C(=O)N[C@@H](CCC(=O)O)C(=O)N[C@@H](CCC(=O)O)C(=O)N[C@@H](CC(=O)O)C(=O)N[C@@H](C)C(=O)N[C@@H](CO)C(=O)N1CCC[C@H]1C(=O)N[C@@H](CCC(=O)O)C(=O)N[C@@H](CCC(=O)O)C(=O)N[C@@H](CC(C)C)C(=O)N[C@@H](CCC(N)=O)C(=O)N[C@@H](CCCNC(=N)N)C(=O)N[C@@H](Cc1ccc(O)cc1)C(=O)N[C@@H](Cc1ccc(O)cc1)C(=O)N[C@H](C(=O)N[C@@H](CO)C(=O)N[C@@H](CC(C)C)C(=O)N[C@@H](CCCNC(=N)N)C(=O)N[C@@H](Cc1c[nH]cn1)C(=O)N[C@@H](Cc1ccc(O)cc1)C(=O)N[C@@H](CCC(N)=O)C(=O)N[C@@H](CC(N)=O)C(=O)N[C@@H](Cc1c[nH]c2ccccc12)C(=O)N[C@@H](CC(C)C)C(=O)N[C@H](C(=O)N[C@@H](CCCNC(=N)N)C(=O)N[C@@H](CCC(N)=O)C(=O)N[C@@H](CCCNC(=N)N)C(=O)N[C@@H](Cc1ccc(O)cc1)C(N)=O)[C@@H](C)O)C(C)C
B3: Compound 78 (peptide)
peptide: Isovaleryl-APAK([Ahx-γGlu-C18 diacid])PEEDASPEELQRYYVSLRHYYQWLTRQRY-NH2
SMILES: CC(C)CC(=O)N[C@@H](C)C(=O)N1CCC[C@H]1C(=O)N[C@@H](C)C(=O)N[C@@H](CCCCNC(=O)CCCCCNC(=O)CC[C@H](NC(=O)CCCCCCCCCCCCCCCCC(=O)O)C(=O)O)C(=O)N1CCC[C@H]1C(=O)N[C@@H](CCC(=O)O)C(=O)N[C@@H](CCC(=O)O)C(=O)N[C@@H](CC(=O)O)C(=O)N[C@@H](C)C(=O)N[C@@H](CO)C(=O)N1CCC[C@H]1C(=O)N[C@@H](CCC(=O)O)C(=O)N[C@@H](CCC(=O)O)C(=O)N[C@@H](CC(C)C)C(=O)N[C@@H](CCC(N)=O)C(=O)N[C@@H](CCCNC(=N)N)C(=O)N[C@@H](Cc1ccc(O)cc1)C(=O)N[C@@H](Cc1ccc(O)cc1)C(=O)N[C@H](C(=O)N[C@@H](CO)C(=O)N[C@@H](CC(C)C)C(=O)N[C@@H](CCCNC(=N)N)C(=O)N[C@@H](Cc1c[nH]cn1)C(=O)N[C@@H](Cc1ccc(O)cc1)C(=O)N[C@@H](Cc1ccc(O)cc1)C(=O)N[C@@H](CCC(N)=O)C(=O)N[C@@H](Cc1c[nH]c2ccccc12)C(=O)N[C@@H](CC(C)C)C(=O)N[C@H](C(=O)N[C@@H](CCCNC(=N)N)C(=O)N[C@@H](CCC(N)=O)C(=O)N[C@@H](CCCNC(=N)N)C(=O)N[C@@H](Cc1ccc(O)cc1)C(N)=O)[C@@H](C)O)C(C)C
B4: Compound 73 (peptide)
peptide: Isovaleryl-APEK([Ahx-γGlu-C18 diacid])PEEAASPEELQRYYVALRHYYNWLTRQRY-NH2
SMILES: CC(C)CC(=O)N[C@@H](C)C(=O)N1CCC[C@H]1C(=O)N[C@@H](CCC(=O)O)C(=O)N[C@@H](CCCCNC(=O)CCCCCNC(=O)CC[C@H](NC(=O)CCCCCCCCCCCCCCCCC(=O)O)C(=O)O)C(=O)N1CCC[C@H]1C(=O)N[C@@H](CCC(=O)O)C(=O)N[C@@H](CCC(=O)O)C(=O)N[C@@H](C)C(=O)N[C@@H](C)C(=O)N[C@@H](CO)C(=O)N1CCC[C@H]1C(=O)N[C@@H](CCC(=O)O)C(=O)N[C@@H](CCC(=O)O)C(=O)N[C@@H](CC(C)C)C(=O)N[C@@H](CCC(N)=O)C(=O)N[C@@H](CCCNC(=N)N)C(=O)N[C@@H](Cc1ccc(O)cc1)C(=O)N[C@@H](Cc1ccc(O)cc1)C(=O)N[C@H](C(=O)N[C@@H](C)C(=O)N[C@@H](CC(C)C)C(=O)N[C@@H](CCCNC(=N)N)C(=O)N[C@@H](Cc1c[nH]cn1)C(=O)N[C@@H](Cc1ccc(O)cc1)C(=O)N[C@@H](Cc1ccc(O)cc1)C(=O)N[C@@H](CC(N)=O)C(=O)N[C@@H](Cc1c[nH]c2ccccc12)C(=O)N[C@@H](CC(C)C)C(=O)N[C@H](C(=O)N[C@@H](CCCNC(=N)N)C(=O)N[C@@H](CCC(N)=O)C(=O)N[C@@H](CCCNC(=N)N)C(=O)N[C@@H](Cc1ccc(O)cc1)C(N)=O)[C@@H](C)O)C(C)C
B5: Compound 80 (peptide)
peptide: Isovaleryl-APEK([Ahx-γGlu-C18 diacid])PEEDASEAELQRYYVSLRHYYNWLTRQRY-NH2
SMILES: CC(C)CC(=O)N[C@@H](C)C(=O)N1CCC[C@H]1C(=O)N[C@@H](CCC(=O)O)C(=O)N[C@@H](CCCCNC(=O)CCCCCNC(=O)CC[C@H](NC(=O)CCCCCCCCCCCCCCCCC(=O)O)C(=O)O)C(=O)N1CCC[C@H]1C(=O)N[C@@H](CCC(=O)O)C(=O)N[C@@H](CCC(=O)O)C(=O)N[C@@H](CC(=O)O)C(=O)N[C@@H](C)C(=O)N[C@@H](CO)C(=O)N[C@@H](CCC(=O)O)C(=O)N[C@@H](C)C(=O)N[C@@H](CCC(=O)O)C(=O)N[C@@H](CC(C)C)C(=O)N[C@@H](CCC(N)=O)C(=O)N[C@@H](CCCNC(=N)N)C(=O)N[C@@H](Cc1ccc(O)cc1)C(=O)N[C@@H](Cc1ccc(O)cc1)C(=O)N[C@H](C(=O)N[C@@H](CO)C(=O)N[C@@H](CC(C)C)C(=O)N[C@@H](CCCNC(=N)N)C(=O)N[C@@H](Cc1c[nH]cn1)C(=O)N[C@@H](Cc1ccc(O)cc1)C(=O)N[C@@H](Cc1ccc(O)cc1)C(=O)N[C@@H](CC(N)=O)C(=O)N[C@@H](Cc1c[nH]c2ccccc12)C(=O)N[C@@H](CC(C)C)C(=O)N[C@H](C(=O)N[C@@H](CCCNC(=N)N)C(=O)N[C@@H](CCC(N)=O)C(=O)N[C@@H](CCCNC(=N)N)C(=O)N[C@@H](Cc1ccc(O)cc1)C(N)=O)[C@@H](C)O)C(C)C
B6: Compound 69 (peptide)
peptide: Isovaleryl-APEK([Ahx-γGlu-C18 diacid])PPADASPEETQRYYVSLRHYYNWLTRQRY-NH2
SMILES: CC(C)CC(=O)N[C@@H](C)C(=O)N1CCC[C@H]1C(=O)N[C@@H](CCC(=O)O)C(=O)N[C@@H](CCCCNC(=O)CCCCCNC(=O)CC[C@H](NC(=O)CCCCCCCCCCCCCCCCC(=O)O)C(=O)O)C(=O)N1CCC[C@H]1C(=O)N1CCC[C@H]1C(=O)N[C@@H](C)C(=O)N[C@@H](CC(=O)O)C(=O)N[C@@H](C)C(=O)N[C@@H](CO)C(=O)N1CCC[C@H]1C(=O)N[C@@H](CCC(=O)O)C(=O)N[C@@H](CCC(=O)O)C(=O)N[C@H](C(=O)N[C@@H](CCC(N)=O)C(=O)N[C@@H](CCCNC(=N)N)C(=O)N[C@@H](Cc1ccc(O)cc1)C(=O)N[C@@H](Cc1ccc(O)cc1)C(=O)N[C@H](C(=O)N[C@@H](CO)C(=O)N[C@@H](CC(C)C)C(=O)N[C@@H](CCCNC(=N)N)C(=O)N[C@@H](Cc1c[nH]cn1)C(=O)N[C@@H](Cc1ccc(O)cc1)C(=O)N[C@@H](Cc1ccc(O)cc1)C(=O)N[C@@H](CC(N)=O)C(=O)N[C@@H](Cc1c[nH]c2ccccc12)C(=O)N[C@@H](CC(C)C)C(=O)N[C@H](C(=O)N[C@@H](CCCNC(=N)N)C(=O)N[C@@H](CCC(N)=O)C(=O)N[C@@H](CCCNC(=N)N)C(=O)N[C@@H](Cc1ccc(O)cc1)C(N)=O)[C@@H](C)O)C(C)C)[C@@H](C)O

molecular target: T1, human NPY2 receptor; assay: RLB: displacement of 125I-PYY(1-36) from hNPY2R membranes

B1 and B2 are within 1.5-fold of each other in Ki: 9.07 nM for the first, 9.73 nM for the second.

B3 and B4 are within 1.5-fold of each other in Ki: 1.8 nM for the first, 2.16 nM for the second.

Going from B5 to B6, the Ki falls from 4.62 nM to 0.54 nM (8.6-fold). The second binds more tightly here.
